The values that follow come from patent US20040248211A1, “ICAM-related protein” (priority 1992, published 2004).

The target of one assay is T1, ICAM-1 (Homo sapiens, UniProt P05362).
T1 construct: express the full length ICAM-1 and ICAM-R proteins, respectively; expressed in transfected cells; host or cells: COS cells, DEAE-dextran, plasmid pcDNA1AmpICAM-1
The experiment in a line: FACS binding to COS cell transfectants. The settings on record: antibody 5.0 ug/ml. The method, then:
(§1) For the anti-ICAM-R monoclonal antibody binding assay, COS cells transfected with constructs encoding the ICAM-R chimeric proteins or control constructs were removed from the plates by EDTA treatment and aliquoted at 2.5×10^5 cells per well in a 96-well round bottom plate. Cells were washed 3 times with ice cold washing buffer (PBS containing 1% BSA and 0.05% sodium azide). Anti-ICAM-R monoclonal antibody was applied at 5.0 ug/ml in 50 ul final volume and incubated on ice for 30 minutes. Cells were then washed three times with cold washing buffer and incubated with the FITC labeled secondary antibody (sheep anti-mouse IgG F(ab′)2) at a 1:100 dilution on ice for 30 minutes in dark in 50 ul final volume. After the incubation, cells were washed again for three times in the ice cold washing buffer and resuspended in 200 ul of 1% paraformaldehyde. The samples were analyzed on a Becton-Dickinson FACScan instrument. Results of the assay are given below in Table 5 as percent positive COS cell transfectants, wherein MOPC 21 (IgG1) and UPC 10 (IgG2a) are isotype matched controls, 18E3D is an ICAM-1 specific monoclonal antibody and ICR-1.1 to ICR-9.2 are ICAM-R specific monoclonal antibodies. The reactivities of monoclonal antibodies ICR-1.1 through ICR-9.2 were assayed in a different experiment than monoclonal antibodies ICR-12.1 through ICR-17.1.
In general terms: In flow cytometry, cells or beads pass a laser one at a time.

Another assay addresses T2, ICAM-R (Homo sapiens, UniProt P32942).
T2 construct: express the full length ICAM-1 and ICAM-R proteins, respectively; expressed in transfected cells; host or cells: COS cells, DEAE-dextran, plasmid pcDNA1AmpICAM-R
T2 sequence (P32942 30-547): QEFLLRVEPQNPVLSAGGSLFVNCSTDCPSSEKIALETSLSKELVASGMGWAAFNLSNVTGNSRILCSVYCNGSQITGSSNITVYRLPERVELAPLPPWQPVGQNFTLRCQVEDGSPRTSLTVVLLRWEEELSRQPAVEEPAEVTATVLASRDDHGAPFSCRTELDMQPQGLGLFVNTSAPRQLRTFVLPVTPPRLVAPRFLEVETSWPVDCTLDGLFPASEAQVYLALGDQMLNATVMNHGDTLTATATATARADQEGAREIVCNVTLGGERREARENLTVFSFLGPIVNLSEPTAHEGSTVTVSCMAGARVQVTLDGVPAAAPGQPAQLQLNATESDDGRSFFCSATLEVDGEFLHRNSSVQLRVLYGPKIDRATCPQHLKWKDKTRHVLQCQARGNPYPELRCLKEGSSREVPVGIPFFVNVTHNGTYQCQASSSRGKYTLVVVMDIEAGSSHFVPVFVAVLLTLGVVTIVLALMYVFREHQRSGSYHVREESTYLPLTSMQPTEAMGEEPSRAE
The assay can be described thus: FACS binding to COS cell transfectants. The note with it: antibody 5.0 ug/ml. The protocol:
as §1

In the next assay the test system is PBL. The assay can be described thus: Pre-incubation on plate-bound antibody then SEA proliferation. The settings on record: cells moved to clean wells; SEA 10 pg/ml, 3 days. It counts as cell-based, human. The protocol: The minimum time required for plate-bound anti-ICAM-R to inhibit SEA-induced proliferation was also determined. PBL were pre-incubated on plate-bound ICR-4.2, ICR-1.1 or isotype-matched anti-HLA-I control antibodies B-H9 (IgG1) and I0T2 (IgG2) with or without SEA (10 ρg/ml) for 3, 5 and 7 hours. PBL were then transferred to clean wells and cultured in the presence of SEA (10 pg/ml) for 3 days.

In assay [1] the test system is PBMC. The assay can be described thus: PBMC activation markers on immobilized antibody. The note with it: immobilized antibody 10 μg/well; no other stimuli. The format is cell-based, human. The method, then:
Anti-ICAM-R monoclonal antibodies ICR-1.1 and ICR-4.2 were each tested for the ability to induce PMBC activation in the absence of other inducing stimuli. Monoclonal antibodies ICR-1.1 or ICR-4.2 (or control monoclonal antibodies) were added (10 μg/well in PBS) to individual wells of a 96-well flat bottom tissue culture plate and incubated for 3 hours at 37° C. in a 5% CO2 incubator. The plates were washed 3 times with sterile PBS to remove unbound antibody and freshly isolated PBMC were immediately added to a final concentration of 2×10^5 cells/well in a volume of 200 μl media. The plates were then incubated for either 1 or 3 days at which time the cells cultured in the presence of different antibodies were removed, washed as described above in PBS containing 0.01% sodium azide and 1% BSA (FACS buffer) and stained with either FITC (Becton Dickinson)-conjugated negative control antibodies or a panel of FITC-conjugated anti-CD69, anti-transferrin receptor and anti-IL-2 receptor antibodies. Results were obtained by FACScan analysis. […] However, while increased expression of these lymphocyte activation markers was observed after 1 and 3 days this increased expression was unaccompanied by increased cell size.

Assay [2] deals with PBMC. The assay can be described thus: PBMC activation markers, immobilized antibody plus low dose anti-CD3. The note with it: immobilized antibody 10 μg/well plus anti-CD3 0.025 μg/well. It counts as cell-based, human. The protocol:
Ten μg of anti-ICAM-R monoclonal antibodies ICR-1.1 or ICR-4.2 (or control monoclonal antibodies to HLA Class I; Serotec, Oxford, England) were added per well of 96-well flat bottom tissue culture plates either in the presence or absence of anti-CD3 antibody initially added at 0.025 μg/well and washed to remove unbound antibody. Freshly obtained PBMC were immediately added (2×10^5 cells/well). The cells were then incubated for a total of either 16 hours or 3 days at which time the cells were removed and washed 2 times in ice cold FACS buffer. Two×10^5 cells were then resuspended in 50 μl ice cold FACS buffer, and 5 μl of FITC-conjugated anti-CD69, anti-transferrin receptor, anti-IL-2 receptor antibody or anti-FITC conjugated control Ig was added. The cells were incubated at 4° C. for 30 minutes and then washed 2 times in 0.5 ml ice cold FACS buffer. After the final wash the cells were resuspended in 0.5 ml FACS buffer and fluorescence determined by FACScan analysis. […] The effect was more pronounced with antibody ICR-1.1. Similar results were also obtained after 16 hours in culture.

T1 sequence (P05362 28-532): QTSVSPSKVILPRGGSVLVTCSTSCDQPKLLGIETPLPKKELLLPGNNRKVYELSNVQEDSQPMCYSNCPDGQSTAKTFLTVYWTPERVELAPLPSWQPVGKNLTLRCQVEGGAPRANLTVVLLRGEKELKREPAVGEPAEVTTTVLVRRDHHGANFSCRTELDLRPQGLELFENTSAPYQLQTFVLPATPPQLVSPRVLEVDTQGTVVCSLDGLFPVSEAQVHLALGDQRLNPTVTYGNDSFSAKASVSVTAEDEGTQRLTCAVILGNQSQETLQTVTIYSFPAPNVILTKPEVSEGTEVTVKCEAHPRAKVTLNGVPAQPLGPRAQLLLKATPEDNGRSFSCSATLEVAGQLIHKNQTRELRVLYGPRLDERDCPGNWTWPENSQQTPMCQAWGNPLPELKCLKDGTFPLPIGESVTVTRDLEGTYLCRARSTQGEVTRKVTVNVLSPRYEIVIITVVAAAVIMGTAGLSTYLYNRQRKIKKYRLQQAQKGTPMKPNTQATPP

B1: ICR-1.1: anti-ICAM-R monoclonal antibody, IgG2a, domain 1, ATCC HB 11053 (antibody, V domains shown)
VH: QVQLQQSGAELAKPGASVKMSCKASGYTFTVYWMHWVKQRPGQGLEWIGYINPNTDYTEYNQRFQDKATLTADKSSSTAYMQLSSLTSEDSAVYYCARWGGNSYGLDYWGQGTSVTVSS
VL: QIVLTQSPALMSASPGEKVTMTCSASSSVSYIYWYQQKPRSSPKPWIYLTSNLASGVPARFSGSGSGASYSLTISIMEAEDAATYYCQQWKSIPLTFGAGTKLELK
As for B1, the “percent positive COS cell transfectants, ICAM-1” value in the assay with ICAM-1 is recorded as 2.43%. Also, the “percent positive COS cell transfectants, ICAM-R” value in the assay with ICAM-R is on record as 54.33%. Besides, in the assay on PBL, the “SEA proliferation after 3 hours pre-incubation on immobilized antibody” value is given as “significantly reduced proliferation”. Further, in the assay on PBMC [1], the “PBMC activation marker expression after 1 day” value was “Expression of CD69 and the transferrin receptor but not the IL-2 receptor increased”; the “PBMC activation marker expression after 3 days” value was “increased levels of cell surface expression of both the transferrin receptor and IL-2 receptor but not CD69”. In addition, in the assay with PBMC [2], the “PBMC activation marker expression after 16 hours” value is given as “induced expression of CD69, but not the transferrin receptor”; the “PBMC activation marker expression after 3 days” value was “significant upregulation of both the transferrin and IL-2 receptors”.
